In the supplement of paper PMC9170038:

Legend:
MS2 coat protein [1] = test: apparent KD of MS2 coat protein; designed switch direction (-1 OFF switch, 1 ON switch): 1; higher = weaker reporter binding
In short: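 Normalised cluster fluorescence was curve-fitted, and each design's median over clusters is its apparent KD. Before this, SNAP-549-labelled MS2 coat protein was titrated from 0.7 or 1.5 nM, doubling to 3 µM, over RNA switches transcribed on Illumina chips by stalled E. coli RNA polymerase. Titrations had no input, 200 uM small-molecule ligand, or an oligonucleotide input, and steps lasted 0.8–1.5 h (lowest) to 10–20 min (highest).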

MS2 coat protein [2] = test: apparent KD of MS2 coat protein; higher = weaker reporter binding; conditions: Eterna round: R107
In short: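 Apparent KD stands for the median, per design, of fits to normalised cluster binding curves. The curves came from titrating on-chip-transcribed RNA switches on Illumina sequencing clusters with SNAP-549-labelled MS2 coat protein, twofold from 0.7 or 1.5 nM to 3 µM. Buffer was 100 mM Tris-HCl pH 7.5, 80 mM KCl, 4 mM MgCl2, without or with constant ligand.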

[3] = input ligand: microRNA oligo, concentration not stated
[4] = Eterna round: R95, input ligand: FMN 200 uM
[5] = Eterna round: R95, input ligand: microRNA oligo, concentration not stated
[6] = Eterna round: R95, input ligand: none
[7] = input ligand: theophylline 20 uM
[8] = input ligand: theophylline 2 mM
[9] = input ligand: tryptophan 2.4 mM

Sequence | apparent KD of MS2 coat protein (MS2 coat protein [1]; [4]) | apparent KD of MS2 coat protein (MS2 coat protein [1]; [5]) | apparent KD of MS2 coat protein (MS2 coat protein [1]; [6]) | apparent KD of MS2 coat protein (MS2 coat protein [2]; input ligand: arginine 13.2 mM) | apparent KD of MS2 coat protein (MS2 coat protein [2]; [7]) | apparent KD of MS2 coat protein (MS2 coat protein [2]; [9]) | also measured
GUGCUCGUGUAAGGAUAUGCAGCCGUUUCGGCUGCAGAAGGUACUAUAAUACAUGAGGAUCACCCAUGUCUCUAUAGUUUGGUG [salish99_SSNG1_r04_905] (Eterna round: R96, puzzle: Same State NG 1) |  |  |  |  |  |  | apparent KD of MS2 coat protein (MS2 coat protein [1]; [3]): 22.3 nM
AGCUAUCGAAAACGAUAGCAAAAGCAUGUACAUGAGGAUCACCCAUGUCAUGUAUAAGCUUUUUGCUCGUCUUAAAA [Zipper 23 - 12] (puzzle: Sensor for hsa-mir-208a) | 42.7 nM | 9.86 nM | 34.4 nM |  |  |  | 
AUAAAACAUGAGGAUCACCCAUGUCAACAAAGUCGAGGAUAUGGGCAAAUAAAAUAAGAAUCAGAAGGCGAAUAAU [salish99_ss1_r3_030] (puzzle: Same State 1) | 265 nM | 330 nM | 404 nM |  |  |  | 
UAGAAUCUAUCUCAGGAUAUCAUGUCAAAGACAUGAGGAUCACCCAUGUACCAGGAAACUGGUUAUGAGAAGGGAGAUAGAUUCA [Mat - Same State 2 - Mod - D34] (puzzle: Same State 2) | 124 nM | 98.3 nM | 241 nM |  |  |  | 
GUGCGGCUGCCACAGGAUAUACGUGGAUCGACAUGAGGAUCACCCAUGUAUAUCCUAAUAAUUGCGUAGAAGGGUGGUCAGCCAG [Iserinqu] (puzzle: Same State 2) | 90 nM | 332 nM | 469 nM |  |  |  | 
GGUCCAGCCUGAGCUGGACCGAAGCGUGUACAUGAGGAUCACCCAUGUCAUGUACAGGCUUUUUGCUCGUCUUAUUG [JL-shm-2.11 JL Mod] (puzzle: Sensor for hsa-mir-208a) | 46.5 nM | 20.6 nM | 72.9 nM |  |  |  | 
GUAAGUUCGAUGCUCGUCUCUCCGUACAAACAUGAGGAUCACCCAUGUGAUCGGGAAGUAGCCCGAUCAGUAUGGCC [Teonveenes] (puzzle: Sensor for hsa-mir-208a) | 34.8 nM | 24.3 nM | 38.2 nM |  |  |  | 
UUCCCAGCGGGAGGAUAUGGUGCCUUAUUGGUGCUAGAAGGUCCAACAUGAGGAUCACCCAUGUGGGAGUGGUCUAAUGACCUC [SS NG10LRO07] (Eterna round: R96, puzzle: Same State NG 1) |  |  |  |  |  |  | apparent KD of MS2 coat protein (MS2 coat protein [1]; [3]): 169 nM
UGUACCUUCACAGGAUAUCAUGCGAAAAUUGCGUGAGAAGGGUGAAUACGGUGUUAAUAAAAGCACAUGAGGAUCACCCAUGUA [SameState NG1 #56] (Eterna round: R96, puzzle: Same State NG 1) |  |  |  |  |  |  | apparent KD of MS2 coat protein (MS2 coat protein [1]; input ligand: FMN 200 uM): 303 nM; apparent KD of MS2 coat protein (MS2 coat protein [1]; [3]): 246 nM; apparent KD of MS2 coat protein (MS2 coat protein [1]; input ligand: none): 471 nM
AUAUGAGAAGCAGGAUAUGUGGAGAAGAAAGAAACAGAAGGGCUUAUGGGACAACAUGAGGAUCACCCAUGUUCUCUGUGAUGA [AK SSNG1-V2-2.1] (Eterna round: R96, puzzle: Same State NG 1) |  |  |  |  |  |  | apparent KD of MS2 coat protein (MS2 coat protein [1]; input ligand: FMN 200 uM): 42.8 nM; apparent KD of MS2 coat protein (MS2 coat protein [1]; [3]): 144 nM; apparent KD of MS2 coat protein (MS2 coat protein [1]; input ligand: none): 188 nM
AGUCCAGCCUGAGCUGGACAAAAGCAUGUACAUGAGGAUCACCCAUGUCAUGUACAAGCUUUUUGCUCGUCAUAAUA [Mat - hsa-mir-208a - Mod of JL - D28] (puzzle: Sensor for hsa-mir-208a) | 653 nM | 14.9 nM | 710 nM |  |  |  | 
AUUGCUUACGCAGGAUAUGAUGCGAAAAUUGCGUCAGAAGGGUGAAGUAUCUCAUUGCAACAGGACAUGAGGAUCACCCAUGUC [SameState NG1 #99] (Eterna round: R96, puzzle: Same State NG 1) |  |  |  |  |  |  | apparent KD of MS2 coat protein (MS2 coat protein [1]; input ligand: FMN 200 uM): 150 nM; apparent KD of MS2 coat protein (MS2 coat protein [1]; [3]): 303 nM; apparent KD of MS2 coat protein (MS2 coat protein [1]; input ligand: none): 455 nM
CCUUACGUUGGGCAGCCAGUUCGAAGUGAUACCAGUCACAAAAGUGACCCUUGGCAGCACCGCACAUGAGGAUCACCCAUGUCUA [SSThA NP+V+V2 #8 Same Structure] |  |  |  | 36.4 nM | 55.1 nM | 62.8 nM | apparent KD of MS2 coat protein (MS2 coat protein [2]; input ligand: none): 34.8 nM; apparent KD of MS2 coat protein (MS2 coat protein [2]; [8]): 63.3 nM
UAUACAUGAGGAUCACCCAUGUGCCAUGAUACCAGACAUGAAAAUGUCCCUUGGCAGCAUGGGAAAUGUAUAGCGGGAAACCCGA [Slatina] |  |  |  | 52.7 nM | 201 nM | 60.8 nM | 
UCCACAUGAGGAUCACCCAUGUAAUCAGAUACCAGUGACGAAAGUCACCCUUGGCAGCUGAUUACUUUAGUUCGAGGGUGUUUGA [EThA NP+V+V2 #4 Same Structure] |  |  |  | 84.5 nM | 148 nM | 79.5 nM | 
UGAACAUGAGGAUCACCCAUGUAGAGGGAAGGAGCGUCGAAGAAGACAGGUAGGUCGCCCAGAAAGAAAUCCUCAUGGAUAAGAA [Same State Arginine A GF2] |  |  |  | 86.2 nM | 152 nM | 69 nM | apparent KD of MS2 coat protein (MS2 coat protein [2]; input ligand: none): 54.4 nM; apparent KD of MS2 coat protein (MS2 coat protein [2]; [8]): 122 nM
AACGUAUACAGAAGGAGCGUGAAAUAAGUAAAUUAAUAAUAAACAUGAGGAUCACCCAUGUCACAGGUAGGUCGCUGUAUUCGUA [JR_ExcArginiB_Sub017] |  |  |  | 15.5 nM | 23.6 nM | 18.4 nM | apparent KD of MS2 coat protein (MS2 coat protein [2]; input ligand: none): 21.5 nM; apparent KD of MS2 coat protein (MS2 coat protein [2]; [8]): 21.5 nM
UAUAUAUUGAUGGAUACCAGCAGAGAAAACGUUUAUCCUAACAUGAGGAUCACCCAUGUAUGCCCUUGGCAGCUGUUGAUAUAUA [8.K] |  |  |  | 21.7 nM | 28.7 nM | 18.4 nM | 
